One may read the Kd as the equilibrium constant for the complex coming apart.

For assay [1], the target named is T1, TGF-β1 (UniProt P01137 279-390). Put plainly: cell-based or functional assay.
Assay [2] addresses T2, PD-1 Fc fusion protein (UniProt Q15116 25-167, limits assumed).
T2 construct: Antigen immobilised on the CM5 chip in all PD-1 SPR assays; also called PD-1 fused to human Fc region; PD-1-Fc antigen; not shown: human Fc region
The experiment in a line: SPR (Biacore 3000), recombinant PD-1 Fc immobilised on CM5 chip, fusion protein injected. Here is the method: Surface plasma resonance (SPR) analysis was performed using Biacore3000, CM5 chip, an amine-coupling kit, 10×HBS-P running buffer and Glycine for. […] Dissociation was allowed to proceed followed by regeneration of the chip surface.

Assay [3] has as its target T1, TGF-β1. The experiment in a line: cell-based or functional assay. This is another data set of the same source.

T2 sequence (Q15116 25-167 limits assumed): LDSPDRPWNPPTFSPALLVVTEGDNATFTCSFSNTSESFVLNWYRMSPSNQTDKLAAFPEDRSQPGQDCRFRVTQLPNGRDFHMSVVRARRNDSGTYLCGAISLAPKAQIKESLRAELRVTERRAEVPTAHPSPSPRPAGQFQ
T1 sequence (P01137 279-390 limits assumed): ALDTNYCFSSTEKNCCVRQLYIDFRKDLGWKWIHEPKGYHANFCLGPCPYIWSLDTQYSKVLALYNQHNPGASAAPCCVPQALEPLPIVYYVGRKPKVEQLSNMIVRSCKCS

B1: Anti-PD1 (VL5-VH6).IgG4 (antibody, V domains shown)
VH: QVQLVESGGGVVQPGRSLRLDCKASGITFSNSGMHWVRQAPGKGLEWVAVIWYDGSKRYYADSVKGRFTISRDNSKNTLFLQMNSLRAEDTAVYYCATNDDYWGQGTLVTVSS
VL: EIVLTQSPATLSLSPGERATLSCRASQSVSSYLAWYQQKPGQAPRLLIYDASNRATGIPARFSGSGSGTDFTLTISSLEPEDFAVYYCQQSSNWPRTFGQGTKVEIK
Consider B1, for which the “IC50, inhibition of TGF-β1 induced reporter gene activity (HEK-Blue TGF-β cells, SEAP)” value (“IC50, inhibition” below) in assay [1] was found to be 9 pM.

B2: Anti-PD1 (VH6-VL5) scFv-ADA2 (scFv)
chain 1: QVQLVESGGGVVQPGRSLRLDCKASGITFSNSGMHWVRQAPGKGLEWVAVIWYDGSKRYYADSVKGRFTISRDNSKNTLFLQMNSLRAEDTAVYYCATNDDYWGQGTLVTVSS
chain 2: EIVLTQSPATLSLSPGERATLSCRASQSVSSYLAWYQQKPGQAPRLLIYDASNRATGIPARFSGSGSGTDFTLTISSLEPEDFAVYYCQQSSNWPRTFGQGTKVEIK
chain 3: GGGGSGGGGSSIDETRAHLLLKEKMMRLGGRLVLNTKEELANERLMTLKIAEMKEAMRTLIFPPSMHFFQAKHLIERSQVFNILRMMPKGAALHLHDIGIVTMDWLVRNVTYRPHCHICFTPRGIMQFRFAHPTPRPSEKCSKWILLEDYRKRVQNVTEFDDSLLRNFTLVTQHPEVIYTNQNVVWSKFETIFFTISGLIHYAPVFRDYVFRSMQEFYEDNVLYMEIRARLLPVYELSGEHHDEEWSVKTYQEVAQKFVETHPEFIGIKIIYSDHRSKDVAVIAESIRMAMGLRIKFPTVVAGFDLVGHEDTGHSLHDYKEALMIPAKDGVKLPYFFHAGETDWQGTSIDRNILDALMLNTTRIGHGFALSKHPAVRTYSWKKDIPIEVCPISNQVLKLVSDLRNHPVATLMATGHPMVISSDDPAMFGAKGLSYDFYEVFMGIGGMKADLRTLKQLAMNSIKYSTLLESEKNTFMEIWKKRWDKFIADVATK
B2: the Kd in assay [2] amounted to 3460 pM.

B3: Anti-PD1 (VH6-VL5) IgG4-ADA2 (antibody)
heavy (part 1 of 2): QVQLVESGGGVVQPGRSLRLDCKASGITFSNSGMHWVRQAPGKGLEWVAVIWYDGSKRYYADSVKGRFTISRDNSKNTLFLQMNSLRAEDTAVYYCATNDDYWGQGTLVTVSS
heavy (part 2 of 2): GGGGSGGGGSSIDETRAHLLLKEKMMRLGGRLVLNTKEELANERLMTLKIAEMKEAMRTLIFPPSMHFFQAKHLIERSQVFNILRMMPKGAALHLHDIGIVTMDWLVRNVTYRPHCHICFTPRGIMQFRFAHPTPRPSEKCSKWILLEDYRKRVQNVTEFDDSLLRNFTLVTQHPEVIYTNQNVVWSKFETIFFTISGLIHYAPVFRDYVFRSMQEFYEDNVLYMEIRARLLPVYELSGEHHDEEWSVKTYQEVAQKFVETHPEFIGIKIIYSDHRSKDVAVIAESIRMAMGLRIKFPTVVAGFDLVGHEDTGHSLHDYKEALMIPAKDGVKLPYFFHAGETDWQGTSIDRNILDALMLNTTRIGHGFALSKHPAVRTYSWKKDIPIEVCPISNQVLKLVSDLRNHPVATLMATGHPMVISSDDPAMFGAKGLSYDFYEVFMGIGGMKADLRTLKQLAMNSIKYSTLLESEKNTFMEIWKKRWDKFIADVATK
light: not shown
notes: not shown: IgG4 heavy chain constant region
With B3, in assay [2], the Kd came to 0.0616 pM.

B4: Anti-PD1(VH7-VL6) IgG4-TGFβRII (antibody)
heavy: QVQLVQSGVEVKKPGASVKVSCKASGYTFTNYYMYWVRQAPGQGLEWMGGINPSNGGTNFNEKFKNRVTLTTDSSTTTAYMELKSLQFDDTAVYYCARRDYRFDMGFDYWGQGTTVTVSSASTKGPSVFPLAPCSRSTSESTAALGCLVKDYFPEPVTVSWNSGALTSGVHTFPAVLQSSGLYSLSSVVTVPSSSLGTKTYTCNVDHKPSNTKVDKRVESKYGPPCPSCPAPEFLGGPSVFLFPPKPKDTLMISRTPEVTCVVVDVSQEDPEVQFNWYVDGVEVHNAKTKPREEQFNSTYRVVSVLTVLHQDWLNGKEYKCKVSNKGLPSSIEKTISKAKGQPREPQVYTLPPSQEEMTKNQVSLTCLVKGFYPSDIAVEWESNGQPENNYKTTPPVLDSDGSFFLYSRLTVDKSRWQEGNVFSCSVMHEALHNHYTQKSLSLSPGKGGGGSGGGGSIPPHVQKSVNNDMIVTDNNGAVKFPQLCKFCDVRFSTCDNQKSCMSNCSITSICEKPQEVCVAVWRKNDENITLETVCHDPKLPYHDFILEDAASPKCIMKEKKKPGETFFMCSCSSDECNDNIIFSEEYNTSNPD
light: EIVLTQSPATLSLSPGERATLSCRASKGVSTSGYSYLHWYQQKPGQAPRLLIYLASYLESGVPARFSGSGSGTDFTLTISSLEPEDFAVYYCQHSRDLPLTFGGGTKVEIKRTVAAPSVFIFPPSDEQLKSGTASVVCLLNNFYPREAKVQWKVDNALQSGNSQESVTEQDSKDSTYSLSSTLTLSKADYEKHKVYACEVTHQGLSSPVTKSFNRGEC
For the molecule B4, the “IC50, inhibition” value in assay [1] was determined as 5.6 pM.

B5: Anti-PD1 (VL6-VH7).IgG4(S108P).TGFbRII (antibody)
heavy: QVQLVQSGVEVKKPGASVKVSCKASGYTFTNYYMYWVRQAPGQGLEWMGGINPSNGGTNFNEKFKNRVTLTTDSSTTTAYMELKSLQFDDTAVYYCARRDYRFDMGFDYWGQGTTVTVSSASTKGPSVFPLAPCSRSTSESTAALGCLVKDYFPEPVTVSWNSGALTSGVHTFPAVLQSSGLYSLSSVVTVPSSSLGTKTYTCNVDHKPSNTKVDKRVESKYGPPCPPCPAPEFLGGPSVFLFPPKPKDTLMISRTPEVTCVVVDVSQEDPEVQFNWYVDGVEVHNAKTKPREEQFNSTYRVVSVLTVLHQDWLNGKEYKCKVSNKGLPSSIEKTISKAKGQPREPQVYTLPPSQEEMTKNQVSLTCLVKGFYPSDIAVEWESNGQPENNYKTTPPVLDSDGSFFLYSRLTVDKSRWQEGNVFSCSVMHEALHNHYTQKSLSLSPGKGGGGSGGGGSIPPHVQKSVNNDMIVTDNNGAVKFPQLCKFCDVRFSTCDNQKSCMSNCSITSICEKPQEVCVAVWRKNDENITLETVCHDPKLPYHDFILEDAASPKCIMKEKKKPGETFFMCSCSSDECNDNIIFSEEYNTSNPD
light: EIVLTQSPATLSLSPGERATLSCRASKGVSTSGYSYLHWYQQKPGQAPRLLIYLASYLESGVPARFSGSGSGTDFTLTISSLEPEDFAVYYCQHSRDLPLTFGGGTKVEIKRTVAAPSVFIFPPSDEQLKSGTASVVCLLNNFYPREAKVQWKVDNALQSGNSQESVTEQDSKDSTYSLSSTLTLSKADYEKHKVYACEVTHQGLSSPVTKSFNRGEC
For the molecule B5, in assay [1], the “IC50, inhibition” value came to 9.3 pM.

B6: Anti-PD1 (VH7-VL6) IgG4-ADA2 (antibody)
heavy (part 1 of 2): QVQLVQSGVEVKKPGASVKVSCKASGYTFTNYYMYWVRQAPGQGLEWMGGINPSNGGTNFNEKFKNRVTLTTDSSTTTAYMELKSLQFDDTAVYYCARRDYRFDMGFDYWGQGTTVTVSS
heavy (part 2 of 2): GGGGSGGGGSSIDETRAHLLLKEKMMRLGGRLVLNTKEELANERLMTLKIAEMKEAMRTLIFPPSMHFFQAKHLIERSQVFNILRMMPKGAALHLHDIGIVTMDWLVRNVTYRPHCHICFTPRGIMQFRFAHPTPRPSEKCSKWILLEDYRKRVQNVTEFDDSLLRNFTLVTQHPEVIYTNQNVVWSKFETIFFTISGLIHYAPVFRDYVFRSMQEFYEDNVLYMEIRARLLPVYELSGEHHDEEWSVKTYQEVAQKFVETHPEFIGIKIIYSDHRSKDVAVIAESIRMAMGLRIKFPTVVAGFDLVGHEDTGHSLHDYKEALMIPAKDGVKLPYFFHAGETDWQGTSIDRNILDALMLNTTRIGHGFALSKHPAVRTYSWKKDIPIEVCPISNQVLKLVSDLRNHPVATLMATGHPMVISSDDPAMFGAKGLSYDFYEVFMGIGGMKADLRTLKQLAMNSIKYSTLLESEKNTFMEIWKKRWDKFIADVATK
light: EIVLTQSPATLSLSPGERATLSCRASKGVSTSGYSYLHWYQQKPGQAPRLLIYLASYLESGVPARFSGSGSGTDFTLTISSLEPEDFAVYYCQHSRDLPLTFGGGTKVEIKRTVAAPSVFIFPPSDEQLKSGTASVVCLLNNFYPREAKVQWKVDNALQSGNSQESVTEQDSKDSTYSLSSTLTLSKADYEKHKVYACEVTHQGLSSPVTKSFNRGEC
notes: as for B3
With B6, the Kd in assay [2] came out at 0.0663 pM.

B7: Anti-PD1 (VH7-VL6) IgG1-ADA2 (antibody)
heavy (part 1 of 2): QVQLVQSGVEVKKPGASVKVSCKASGYTFTNYYMYWVRQAPGQGLEWMGGINPSNGGTNFNEKFKNRVTLTTDSSTTTAYMELKSLQFDDTAVYYCARRDYRFDMGFDYWGQGTTVTVSS
heavy (part 2 of 2): GGGGSGGGGSSIDETRAHLLLKEKMMRLGGRLVLNTKEELANERLMTLKIAEMKEAMRTLIFPPSMHFFQAKHLIERSQVFNILRMMPKGAALHLHDIGIVTMDWLVRNVTYRPHCHICFTPRGIMQFRFAHPTPRPSEKCSKWILLEDYRKRVQNVTEFDDSLLRNFTLVTQHPEVIYTNQNVVWSKFETIFFTISGLIHYAPVFRDYVFRSMQEFYEDNVLYMEIRARLLPVYELSGEHHDEEWSVKTYQEVAQKFVETHPEFIGIKIIYSDHRSKDVAVIAESIRMAMGLRIKFPTVVAGFDLVGHEDTGHSLHDYKEALMIPAKDGVKLPYFFHAGETDWQGTSIDRNILDALMLNTTRIGHGFALSKHPAVRTYSWKKDIPIEVCPISNQVLKLVSDLRNHPVATLMATGHPMVISSDDPAMFGAKGLSYDFYEVFMGIGGMKADLRTLKQLAMNSIKYSTLLESEKNTFMEIWKKRWDKFIADVATK
light: EIVLTQSPATLSLSPGERATLSCRASKGVSTSGYSYLHWYQQKPGQAPRLLIYLASYLESGVPARFSGSGSGTDFTLTISSLEPEDFAVYYCQHSRDLPLTFGGGTKVEIK
notes: not shown: IgG1 heavy chain constant region; light chain constant region
Take B7: the Kd in assay [2] was 0.509 pM.

B8: Anti-PD1 (VH7-VL6) scFv-ADA2 (scFv)
chain 1: QVQLVQSGVEVKKPGASVKVSCKASGYTFTNYYMYWVRQAPGQGLEWMGGINPSNGGTNFNEKFKNRVTLTTDSSTTTAYMELKSLQFDDTAVYYCARRDYRFDMGFDYWGQGTTVTVSS
chain 2: EIVLTQSPATLSLSPGERATLSCRASKGVSTSGYSYLHWYQQKPGQAPRLLIYLASYLESGVPARFSGSGSGTDFTLTISSLEPEDFAVYYCQHSRDLPLTFGGGTKVEIK
chain 3: GGGGSGGGGSSIDETRAHLLLKEKMMRLGGRLVLNTKEELANERLMTLKIAEMKEAMRTLIFPPSMHFFQAKHLIERSQVFNILRMMPKGAALHLHDIGIVTMDWLVRNVTYRPHCHICFTPRGIMQFRFAHPTPRPSEKCSKWILLEDYRKRVQNVTEFDDSLLRNFTLVTQHPEVIYTNQNVVWSKFETIFFTISGLIHYAPVFRDYVFRSMQEFYEDNVLYMEIRARLLPVYELSGEHHDEEWSVKTYQEVAQKFVETHPEFIGIKIIYSDHRSKDVAVIAESIRMAMGLRIKFPTVVAGFDLVGHEDTGHSLHDYKEALMIPAKDGVKLPYFFHAGETDWQGTSIDRNILDALMLNTTRIGHGFALSKHPAVRTYSWKKDIPIEVCPISNQVLKLVSDLRNHPVATLMATGHPMVISSDDPAMFGAKGLSYDFYEVFMGIGGMKADLRTLKQLAMNSIKYSTLLESEKNTFMEIWKKRWDKFIADVATK
As to B8, the equilibrium dissociation constant (Kd) in assay [2] was found to be 130 pM.

B9: Anti-PD1 (VL5-VH6).IgG4-Linker 2-TGFbRII (antibody)
heavy: QVQLVESGGGVVQPGRSLRLDCKASGITFSNSGMHWVRQAPGKGLEWVAVIWYDGSKRYYADSVKGRFTISRDNSKNTLFLQMNSLRAEDTAVYYCATNDDYWGQGTLVTVSSASTKGPSVFPLAPCSRSTSESTAALGCLVKDYFPEPVTVSWNSGALTSGVHTFPAVLQSSGLYSLSSVVTVPSSSLGTKTYTCNVDHKPSNTKVDKRVESKYGPPCPSCPAPEFLGGPSVFLFPPKPKDTLMISRTPEVTCVVVDVSQEDPEVQFNWYVDGVEVHNAKTKPREEQFNSTYRVVSVLTVLHQDWLNGKEYKCKVSNKGLPSSIEKTISKAKGQPREPQVYTLPPSQEEMTKNQVSLTCLVKGFYPSDIAVEWESNGQPENNYKTTPPVLDSDGSFFLYSRLTVDKSRWQEGNVFSCSVMHEALHNHYTQKSLSLSPGKGGGGSGGGSIPPHVQKSVNNDMIVTDNNGAVKFPQLCKFCDVRFSTCDNQKSCMSNCSITSICEKPQEVCVAVWRKNDENITLETVCHDPKLPYHDFILEDAASPKCIMKEKKKPGETFFMCSCSSDECNDNIIFSEEYNTSNPD
light: not shown
As for B9, the “IC50, TGF-β1 neutralization activity (HEK-Blue TGF-β reporter cells)” value in assay [3] was 1.2 pM.

(Values after patent publication US20240141045A1 (PRECIGEN, published 2024).)
